Measured values as given in patent publication US20160369006A1.

Biological target: FcγRIIIA (CD16A) on transduced Jurkat cells (human) (UniProt P08637)
Assay: cell-based or functional assay
Set-up: EC50, NFAT-luciferase reporter in CD16A Jurkat cells with RMF-pulsed T2 cells (reverse signaling): unit not given beside the values

FcγRIIIA (CD16A) on transduced Jurkat cells (human), sequence (P08637 17-254): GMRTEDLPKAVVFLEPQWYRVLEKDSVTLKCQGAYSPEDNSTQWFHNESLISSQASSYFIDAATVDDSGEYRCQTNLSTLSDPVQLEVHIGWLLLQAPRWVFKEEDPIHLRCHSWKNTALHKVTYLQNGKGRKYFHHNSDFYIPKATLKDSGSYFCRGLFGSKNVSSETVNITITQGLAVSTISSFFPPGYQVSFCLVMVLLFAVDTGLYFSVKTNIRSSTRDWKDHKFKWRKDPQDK

## ESKM having 100% reduction in fucosylation (GlymaxX technology) (antibody)
  EC50, NFAT-luciferase reporter in CD16A Jurkat cells with RMF-pulsed T2 cells (reverse signaling): 0.17
  fold decrease in EC50 relative to wildtype ESK1, CD16A reporter: 5 fold

## ESK1 containing D265A/P329A mutations in the Fc domain (ESK1 DAPA) (antibody)
  EC50, NFAT-luciferase reporter in CD16A Jurkat cells with RMF-pulsed T2 cells (reverse signaling): > 10000
